We go through 15 molecules from US20150104808A1 (Janssen / Centocor, published 2015).

Residue numbers refer to the chain shown, from its start.

B1: P114AR5P74-A5 (designed binder, not shown: small tags and cut ends)
chain: LPAPKNLVVSRVTEDSARLSWTAPDAAFDSFWIRYDEVVVGGEAIVLTVPGSERSYDLTGLKPGTEYYVNILGVKGGSISVPLSAIFTT
B2: P114AR7P94-E5 (designed binder, not shown: small tags and cut ends)
chain: B1 chain with D36F, V38F, V39L, V40G, G41S, Y68A, L72M, S78R, I79V
B3: P114AR7P94-A3 (designed binder, not shown: small tags and cut ends)
chain: B1 chain with D36F, V38F, V39L, V40G, G41S, Y68V, L72M, S78K, V81P
B4: P114AR7P95-F10 (designed binder, not shown: small tags and cut ends)
chain: B1 chain with D36F, V38F, V39T, V40T, G41A, Y68V, L72M, V81P
B5: P114AR7P92-F6 (designed binder, not shown: small tags and cut ends)
chain: B1 chain with D36F, V38F, V39L, V40G, G41S, Y68V, S78G, I79L
B6: P114AR5P75-E9 (designed binder, not shown: small tags and cut ends)
chain: B1 chain with W32F, V38F, V39L, V40R, G41S, Y68W, N70T, S78L, I79V, V81T
B7: P114AR7P93-H9 (designed binder, not shown: small tags and cut ends)
chain: B1 chain with D36F, V38F, V39L, V40G, G41S, Y68V, N70Q, L72I, S78H, V81L
B8: P114AR7P92-G8 (designed binder, not shown: small tags and cut ends)
chain: B1 chain with W32V, D36F, V38F, V39L, V40G, G41S, Y68V, N70Q, S78Y, V81I
B9: P114AR7P93-G8 (designed binder, not shown: small tags and cut ends)
chain: LPAPKNLVVSRVTEDSARLSWTAPDAAFDSFWIRYFEFLGSGEAIVLTVPGSERSYDLTDLKPGTEYGVTINGVKGGRVSTPLSAIFTT
B10: ECB38 (designed binder)
chain: MLPAPKNLVVSEVTEDSARLSWDDPWAFYESFLIQYQESEKVGEAIVLTVPGSERSYDLTGLKPGTEYTVSIYGVHNVYKDTNMRGLPLSAIFTTAPAPAPAPAPLPAPKNLVVSRVTEDSARLSWTAPDAAFDSFWIRYFEFLGSGEAIVLTVPGSERSYDLTGLKPGTEYVVNIMGVKGGKISPPLSAIFTTAPAPAPAPAPLAEAKVLANRELDKYGVSDYYKNLINNAKTVEGVKALLDEILAALP
B11: ECB147v3-PEG24 (designed binder)
chain: LPAPKNLVVSEVTEDSARLSWDDPWAFYESFLIQYQESEKVGEAIVLTVPGSERSYDLTGLCPGTEYTVSIYGVHNVYKDTNMRGLPLSAIFTTAPCPAPAPAPLPAPKNLVVSRVTEDSARLSWTAPDAAFDSFWIRYFEFLGSGEAIVLTVPGSERSYDLTGLCPGTEYVVNIMSVKGGSISPPLSAIFTTAPCPAPAPAPLAEAKVLANRELDKYGVSDYYKNLINNAKTVEGVKALLDEILAALP
modifications: PEG24-maleimide on the engineered cysteines
B12: ECB147v5-PEG24 (designed binder)
chain: B11 chain with C97A, C196A
modifications: PEG24-maleimide on the engineered cysteines
B13: ECB147v7-PEG24 (designed binder)
chain: B11 chain with C62K, C166K
modifications: PEG24-maleimide on the engineered cysteines
B14: ECB147v6-PEG24 (designed binder)
chain: B11 chain with C97A, C166K, C196A
modifications: PEG24-maleimide on the engineered cysteine
B15: P54CR4-31 (designed binder, not shown: small tags and cut ends)
chain: LPAPKNLVVSEVTEDSLRLSWTAPDAAFDSFLIQYQESEKVGEAINLTVPGSERSYDLTGLKPGTEYTVSIYGVLGSYVFEHDVMLPLSAEFTT

In one experiment the target is Recombinant human c-Met Fc chimera (human) (UniProt P08581). As to the kind of experiment: HGF competition on coated c-Met Fc chimera, competitor biotinylated HGF.
With B1, the IC50 amounted to 5.2 nM.
With B2, the IC50 is 0.7 nM.
Still for that read-out and setting: with B3 the figure was 0.2 nM; with B4, 1.4 nM; with B5, 2.2 nM.
As to B6, the concentration for half-maximal inhibition (IC50) stood at 51.9 nM.
On the same count and under the same terms, for B7 the value was 2.9 nM; for B8, 1.6 nM.
On the same count and under the same terms, for B9 the value was 1 nM.

In another experiment the target is c-Met (hepatocyte growth factor receptor) on cells (human, UniProt P08581 25-1390). As to the kind of experiment: cell-based or functional assay.
Consider B10, for which the “IC50, inhibition of HGF-stimulated c-Met phosphorylation (Tyr1349) in NCI-H292” value (from here on “IC50, inhibition … (Tyr1349) in NCI-H292”) stood at 1.3 nM.
For B11, the “IC50, inhibition … (Tyr1349) in NCI-H292” value is 0.5 nM.
Consider B12, for which the “IC50, inhibition … (Tyr1349) in NCI-H292” value stood at 0.4 nM.
Still for that read-out and setting: for B13 the value was 0.5 nM; for B14, 0.4 nM.

The target of the next experiment is T1, EGFR (epidermal growth factor receptor) on cells (human, UniProt P00533 25-1210).
T1 construct: Endogenous EGFR of human tumour cell lines; also called A431 cells; NCI-H292
Description: A431 cell binding, anti-His-Alexa488 fluorescence. The protocol:
A431 cells were plated at 5,000/well in opaque black 96-well plates and allowed to attach overnight at 37° C., in a humidified 5% CO₂ atmosphere. […] Supernatant was removed and cells were washed 3 times with 150 μL/well of FACS stain buffer. Cells were incubated with 50 μL/well of anti-penta His-Alexa488 antibody conjugate (Qiagen) diluted 1:100 in FACS stain buffer for 20 minutes at room temperature. Cells were washed 3 times with 150 μL/well of FACS stain buffer, after which wells were filled with 100 μL of FACS stain buffer and read for fluorescence at 488 nm using an Acumen eX3 reader. Data were plotted as raw fluorescence signal against the logarithm of the FN3 domain molar concentration and fitted to a sigmoidal dose-response curve with variable slope using GraphPad Prism 4 (GraphPad Software) to calculate EC₅₀ values.
Turning to B15, the EC50 was > 20000 nM.

The target of another experiment is T1, EGFR (epidermal growth factor receptor) …. As to the kind of experiment: cell-based or functional assay.
B10: the “IC50, inhibition of EGF-stimulated EGFR phosphorylation (Tyr1173) in NCI-H292” value (“IC50, inhibition … (Tyr1173) in NCI-H292” for short) was 2.3 nM.
On the same count and under the same terms, with B11 the figure was 1.6 nM.
B12: the “IC50, inhibition … (Tyr1173) in NCI-H292” value is 0.9 nM.
Take B13: the “IC50, inhibition … (Tyr1173) in NCI-H292” value came to 1.4 nM.
For the molecule B14, the “IC50, inhibition … (Tyr1173) in NCI-H292” value was 1.4 nM.

As a reminder, the IC50 is the midpoint of a concentration-inhibition curve. One may read the EC50 as the concentration that produces a half-maximal response. Higher therefore signals a less potent agent.
